Key:
[1] = target: the molecule itself; test: SEC-MALS
[2] = target: the molecule itself; test: cross-linking

Row | Protein | stoichiometry N [1] | stoichiometry N [2]
1 | MBP-LH1 fusion protein (domain or fragment) not shown | 2 | 
2 | His6-tagged SYD-2LH1 (domain or fragment) not shown |  | 2

— publication PMC3500560 (The Journal of neuroscience : the official journal of the …, 2011)
